In the Immune Epitope Database (IEDB) one finds Kd data, which are given here for 20 sequences.

Test [1] addresses HLA-B*07:02. Description: IEDB peptide-MHC binding, purified MHC/competitive/radioactivity; filed as Kd, often an IC50 or EC50 that approximates it; ≥ and ≤ were set here for values at or beyond the usual limits of such assays. Particulars: source organism: Dengue virus 1 Brazil/97-11/1997.
For test [2], the target named is HLA-A*32:01. The test is described as above.
The target in test [3] is HLA-B*15:01. Described as above.
For test [4], the target named is HLA-A*01:01. The description is as above.
Test [5] deals with HLA-A*26:01. The test is described as above.
In test [6] the target is HLA-A*29:02. The test is described as above.
Test [7] deals with HLA-A*30:01. The test is described as above.
Test [8] deals with HLA-A*30:02. The test is described as above.
The target in test [9] is HLA-B*44:03. The test is described as above.
In test [10] the target is HLA-B*18:01. Described as above.
Test [11] concerns the target HLA-B*40:02. The test is described as above.
For test [12], the target named is HLA-B*45:01. Described as above.
The target in test [13] is HLA-B*40:01. The description is as above.
Test [14] has as its target HLA-B*44:02. The test is described as above.
Test [15] concerns the target HLA-B*18:01. Description: IEDB peptide-MHC binding, purified MHC/direct/fluorescence; filed as Kd, often an IC50 or EC50 that approximates it; ≥ and ≤ were set here for values at or beyond the usual limits of such assays. Conditions: source organism: Influenza A virus (A/swine/Hong Kong/2106/98(H9N2)).
Test [16] concerns the target HLA-B*40:01. The test is described as above.
For test [17], the target named is HLA-B*44:02. Described as above.
The target of test [18] is HLA-B*35:01. The test is described as follows: IEDB peptide-MHC binding, purified MHC/competitive/radioactivity; filed as Kd, often an IC50 or EC50 that approximates it; ≥ and ≤ were set here for values at or beyond the usual limits of such assays.
Test [19] addresses HLA-B*53:01. The description is as above. Particulars: source organism: Dengue virus 3 Martinique/1243/1999.
Test [20] has as its target HLA-A*68:02. The description is as above. Particulars: source organism: Dengue virus 4 Philippines/H241/1956.
The target in test [21] is HLA-B*51:01. The test is described as follows: IEDB peptide-MHC binding, purified MHC/competitive/fluorescence; filed as Kd, often an IC50 or EC50 that approximates it; ≥ and ≤ were set here for values at or beyond the usual limits of such assays. Conditions: source organism: Vibrio vulnificus YJ016.
The target of test [22] is HLA-B*57:01. The test is described as above. Particulars: source organism: Yersinia enterocolitica.
For test [23], the target named is HLA-B*15:01. Described as above. Particulars: source organism: Yersinia enterocolitica.
For test [24], the target named is HLA-B*18:01. The test is described as above. Particulars: source organism: Yersinia enterocolitica.
The target in test [25] is HLA-B*46:01. Described as above. Particulars: source organism: Yersinia enterocolitica.
For test [26], the target named is HLA-B*39:01. Described as above. Particulars: source organism: Yersinia enterocolitica.
For test [27], the target named is HLA-B*27:03. Described as above. Particulars: source organism: Yersinia enterocolitica.
For test [28], the target named is HLA-A*26:01. The test is described as above. Particulars: source organism: Yersinia enterocolitica.
Where [29] appears, read: source organism: Vaccinia virus Copenhagen.
The mark [30] stands for this setting: source organism: Lymphocytic choriomeningitis virus (strain Armstrong).
Where [31] appears, read: source organism: SARS coronavirus Tor2.
The mark [32] stands for this setting: source organism: Mammarenavirus guanaritoense.
Setting [33] is: source organism: Influenza A virus (A/swine/Hong Kong/2106/98(H9N2)).
Where [34] appears, read: source organism: Dengue virus 3 Martinique/1243/1999.
[35] abbreviates: source organism: Vaccinia virus WR.
[36] abbreviates: source organism: Dengue virus 4 Dominica/814669/1981.

Usually Kd stands for a measure of binding affinity in units of concentration. KPSGSASSMV: in test [1], the Kd amounted to 51.7 nM.
As to LLFFLALSI, the results for the Kd in test [2] (setting [29]) and in test [3] (setting [29]) were 500 nM and 134 nM, respectively.
With ESFVRKQKY, the Kd was not below 77800 nM in [2] (setting [30]); 10800 nM in [4] (setting [30]); 4020 nM in test [5] (setting [30]); not below 65100 nM in test [6] (setting [30]); 12200 nM in [7] (setting [30]); 3140 nM in test [8] (setting [30]).
On to REEAIRHVRA, for which the Kd in test [9] (setting [31]) is not below 45900 nM; in test [10] (setting [31]), not below 70500 nM; in test [11] (setting [31]), 3330 nM; in [12] (setting [31]), 57.6 nM; in test [13] (setting [31]) it was 689 nM; in test [14] (setting [31]), 18800 nM.
Take PECSDSPLVL: the Kd was not below 70100 nM in test [9] (setting [32]); 17300 nM in [10] (setting [32]); 3150 nM in [11] (setting [32]); not below 70000 nM in test [12] (setting [32]); not below 33000 nM in test [13] (setting [32]); not below 70200 nM in test [14] (setting [32]).
For GENMAPEKV, the Kd in [15] is not below 20000 nM; in test [16] (setting [33]), 168 nM; in [17] (setting [33]), not below 20000 nM.
Take LPVCQSSSMR: the values for the Kd in [18] (setting [34]) and in test [19] were 330 nM and 15500 nM, respectively.
On to KLMSGKDVF, for which the Kd was 507 nM in test [2] (setting [34]) and 5.6 nM in test [3] (setting [34]).
As to KTRNVIRNI, the Kd is 319 nM in test [2] (setting [35]) and 0.0718 nM in [7] (setting [35]).
For TPRAKRGTAQ, the Kd in test [1] came to 113 nM.
Regarding MAWRTIMAV, the Kd in [18] (source organism: Dengue virus 4 Philippines/H241/1956) was determined as 765 nM; in test [20], 17 nM.
On to SDLKYSWKTW, for which the dissociation constant Kd in [2] (setting [36]) was 683 nM; in [14] (setting [36]), 1010 nM.
As for KLNKMTVEL, in test [2] (setting [35]), the Kd came to 1.68 nM.
Regarding NINRLILNF, in [2] (setting [35]), the equilibrium dissociation constant (Kd) stood at 2630 nM.
LPVLSLNWV yielded a Kd in [21] of 278 nM.
Regarding SEGGIFNIT, the Kd is 813 nM in test [16] (source organism: Amur virus) and not below 20000 nM in [17] (source organism: Amur virus).
For PSLCRVNNSY, the Kd in test [2] (setting [32]) is 9850 nM; in [4] (setting [32]) it was 1220 nM; in test [5] (setting [32]), 16000 nM; in [6] (setting [32]) it was not below 20100 nM; in test [7] (setting [32]), 11200 nM; in test [8] (setting [32]) it was 287 nM.
For the sequence KPIDDRFAT, the dissociation constant Kd in test [1] worked out at 49.3 nM.
IIFDIYFAI: the Kd in test [2] (setting [35]) was 0.934 nM.
RTVSVMFFI: the Kd in test [22] was 1240 nM; in test [23] it was not below 20000 nM; in test [24] it was not below 20000 nM; in test [25] it was not below 20000 nM; in [26], not below 20000 nM; in [27] it was not below 20000 nM. The same sequence showed a Kd in test [28] not below 20000 nM.
